Read-outs that look alike come from different tables or passages of the source.

Assay [1] deals with T1, human IL2Rγ expressed on cells (human) (UniProt P31785).
T1 sequence (looked up): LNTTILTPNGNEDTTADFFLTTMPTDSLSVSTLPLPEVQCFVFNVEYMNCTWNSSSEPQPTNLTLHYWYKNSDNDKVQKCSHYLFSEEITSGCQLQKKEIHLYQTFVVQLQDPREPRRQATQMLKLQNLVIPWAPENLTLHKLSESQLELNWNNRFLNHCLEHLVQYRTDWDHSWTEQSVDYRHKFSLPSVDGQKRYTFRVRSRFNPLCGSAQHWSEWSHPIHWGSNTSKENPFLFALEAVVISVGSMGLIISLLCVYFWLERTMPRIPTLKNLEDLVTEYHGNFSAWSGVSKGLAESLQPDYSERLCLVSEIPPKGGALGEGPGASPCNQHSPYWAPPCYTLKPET
The experiment in a line: cell-based or functional assay.

In assay [2] the target is T1, human IL2Rγ expressed on cells (human). The experiment in a line: cell-based or functional assay. This is another data set of the same source.
The target in assay [3] is human IL-2Rγ expressed on cells (human) (UniProt P31785). The experiment in a line: flow cytometry on NK-92 cells, isotype control at 10 µg/ml; the end of the range that Table 9-2 ties to NK-92. A general note: A flow cytometer gives signals particle by particle.
The target in assay [4] is T2, mouse IL-2Rγ expressed on cells (MC/9) (mouse) (UniProt P34902).
T2 sequence (looked up): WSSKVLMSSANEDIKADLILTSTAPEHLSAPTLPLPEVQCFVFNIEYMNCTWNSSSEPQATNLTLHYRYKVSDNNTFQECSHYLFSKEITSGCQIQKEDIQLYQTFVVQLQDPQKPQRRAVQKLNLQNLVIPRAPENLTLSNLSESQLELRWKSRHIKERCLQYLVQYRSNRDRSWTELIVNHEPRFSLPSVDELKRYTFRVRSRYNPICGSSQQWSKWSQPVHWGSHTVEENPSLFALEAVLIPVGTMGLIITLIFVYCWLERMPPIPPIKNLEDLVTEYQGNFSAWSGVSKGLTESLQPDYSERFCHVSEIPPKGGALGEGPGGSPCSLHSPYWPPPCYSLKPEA
The experiment in a line: flow cytometry on MC/9 cells (endogenous mouse IL-2Rg), isotype control 10 ug/ml.

Assay [5] addresses T3, human IL-2Rγ expressed on cells (NK-92, Jurkat) (human) (UniProt P31785).
T3 sequence (looked up): T1 sequence (looked up)
The experiment in a line: flow cytometry on NK-92 cells (endogenous human IL-2Rg), isotype control 10 ug/ml.

Assay [6] addresses T3, human IL-2Rγ expressed on cells (NK-92, Jurkat) (human). Described as above. This is another data set of the same source.
Assay [7] addresses human IL-2Rγ expressed on cells (human) (UniProt P31785). The experiment in a line: flow cytometry, isotype control at 10 µg/ml; high end of the range (NK-92 by Table 9-1).
The target in assay [8] is T3, human IL-2Rγ expressed on cells (NK-92, Jurkat) (human). The experiment in a line: flow cytometry on Jurkat cells (endogenous human IL-2Rg), isotype control 10 ug/ml.
Assay [9] concerns the target human IL-2Rγ expressed on cells (human) (UniProt P31785). The experiment in a line: flow cytometry, isotype control at 10 µg/ml; low end of the range (Jurkat by Table 9-1).
In assay [10] the target is T3, human IL-2Rγ expressed on cells (NK-92, Jurkat) (human). The experiment in a line: flow cytometry on Jurkat cells (endogenous human IL-2Rg), secondary antibody alone.
In assay [11] the target is T2, mouse IL-2Rγ expressed on cells (MC/9) (mouse). The experiment in a line: flow cytometry on MC/9 cells (endogenous mouse IL-2Rg), secondary antibody alone.
The target in assay [12] is T3, human IL-2Rγ expressed on cells (NK-92, Jurkat) (human). The experiment in a line: flow cytometry on NK-92 cells (endogenous human IL-2Rg), secondary antibody alone.

For “human IL-9 (from UniProt P15248 19-144) (ligand)”, the EC50 [M] of ligand; NK92/hIL7R/STAT3-luc in assay [1] came out at 3.3e-11 M; in assay [2], 2e-11 M.

As for REGN1945 (antibody), the binding ratio (sample MFI over unstained MFI) stood at 1 in assay [3], 13 in [7] and 1 in assay [9]. For the same substance, the Binding Ratio (Sample over unstained MFIs) came out at 1 in [4], 1 in assay [5], 13 in assay [6] and 1 in [8].

In the case of “human IL-15 (from UniProt P40933 49-162) (ligand)”, the EC50 [M] of ligand; NK92/hIL7R/STAT3-luc in [1] was 2.3e-10 M; in assay [2], 1.5e-10 M.

In the case of “anti-human antibody conjugated to allophycocyanin (APC) (Jackson ImmunoResearch, #109-136-170)”, the Binding Ratio (Sample over unstained MFIs) in assay [10], in [11] and in assay [12] was 1 throughout.

Turning to “human IL-21 (from UniProt Q9HBE4 30-162) (ligand)”, the EC50 [M] of ligand; NK92/hIL7R/STAT3-luc worked out at 6e-12 M in assay [1] and 3.1e-12 M in assay [2].

As for “human IL-2 (from UniProt P60568 21-153) (ligand)”, the EC50 [M] of ligand; NK92/hIL7R/STAT3-luc turned out to be 4.5e-11 M in [1] and 3.3e-11 M in [2].

Source of the values: patent US20230279131A1.
